Results taken from the supplement of paper PMC12764529.
± gives the half width of the 95% confidence interval.

Assays:
[1] = folding stability dG unfold from trypsin proteolysis; higher = more stable
In short: (§1)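 Designed mini-proteins with no cysteine and under 80 residues were kept only if AlphaFold2 dimer inter-PAE was above 15. In a PA-tagged cDNA display construct, they were digested with trypsin and chymotrypsin and then sequenced. K50 was inferred by Bayesian fitting of counts, and unfolding free energy was derived per protease or combined against a sequence-predicted unfolded-state K50 and a shared folded-state K50.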

[2] = folding stability dG unfold from chymotrypsin proteolysis; higher = more stable
In short: as §1

[3] = folding stability dG unfold (combined trypsin and chymotrypsin); higher = more stable
In short: as §1

Sequence | folding stability dG unfold [1] [kcal/mol] | folding stability dG unfold [2] [kcal/mol] | folding stability dG unfold [3] [kcal/mol]
SVEKAREALEEAGFEVTRIEVREDGTVRVTVRRDGKLVEIELTVEPPPPVEVVEEEPEVRVERRYSAEDLSA [r9_2_TrROS_Hall] | 0.499 ± 0.15 | -0.34 ± 0.42 | 0.212 ± 0.35
SVEKARERLEKLGFKLVSVDPLEDGSVVLTFEFPDNKVVVLVDEDGNARIVAYNPSDGKFSEATFNLDDLSA [r9_2_TrMRF] | 2.84 ± 0.066 | 2.577 ± 0.024 | 2.7 ± 0.038
SVFEMPIKLTLKRRDPDGKGRKVKVTIRIRFEMPPNLPPDDKNDPERRKMHQMMHSNMHERAESLADPLASA [r9_237_TrROS] | 1.41 ± 0.095 | 1.6 ± 0.36 | 1.67 ± 0.28
SVKIKINWQRDPEDGRLYLMIEYRFEDDPQQAIEEIKDILERFGFKVPEIESITVDPGNGEITIPIRIPWSA [r9_876_TrROS] | 2.64 ± 0.097 | 2.62 ± 0.11 | 2.66 ± 0.22
SVTVDEIAEWFANSFQQHGMKDVKVDVTVEPDPKNGRVRVDVQIRMTYPNPDGEKHRFEMTIPVEIPPNDSA [r9_440_TrROS] | 1.93 ± 0.051 | 1.93 ± 0.075 | 1.99 ± 0.12
SVVLDVPYENRPDLLATIRALVAEKAPPVVVFVEAPEAERARLRRELEALGFTVEPTPVPNRYRITFRPASA [r9_600_TrMRF] | 3.15 ± 0.085 | 3.07 ± 0.058 | 3.15 ± 0.067
SVYIPIPMGDPEGLKEMLDFIKNILEKNQENGYENVPIPIHMPNGGPFEFPIDPNSTLEEQLDQIEKFIESA [r9_127_TrROS] | 1.56 ± 0.11 | 0.663 ± 0.078 | 1.15 ± 0.24
SYIKIPFNVWMPPDNAEAMAEEFANNLAQKHGWKIKGIKPVEPVPSPDGEWYPFRVSITIRMPDPEAINASA [r9_302_TrROS] | 1.62 ± 0.031 | 2.07 ± 0.13 | 1.82 ± 0.098
SYKIHIMRPNGEMEEIPIKHPDGWKINIHRGPNKPFYIMVERYDPDGGPKPKPVIPIDSPEQALDKLKDASA [r9_942_TrROS] | -0.123 ± 0.18 | -0.11 ± 0.3 | 0.0153 ± 0.2
TIVIENASVEQIKNAIKEAIKEGKEVKIIIKASPEEKEKIIEELKKLPEIKKVEKLPNGSIKITIKAKELKS [r1_324_TrROS_Hall] | 1.76 ± 0.083 | 2.82 ± 0.69 | 2.32 ± 0.66
VDLGIRTESVGGRRYRVLIRRPGTGEPRVLEVEGTLEEARERALREIREEYPDLPVRSINPVPVPAPPWLES [r1_80_TrMRF] | -0.153 ± 0.19 | -0.154 ± 0.14 | -0.139 ± 0.15
VDPDDPEYQRFVYFVQELAKTIVEEHQEEGPTVDELYITVDPNNVKIEPVDMPPDEWEEHQKEGRPVIPIRS [r1_134_TrROS] | 0.179 ± 0.14 | 0.187 ± 0.33 | -0.0608 ± 0.28
WLKFPFPIYNPGFGRPAKFEIELWPDGQLQVTWNGQPILSIPIRIVPPPEVEVDPEYDPNGKEKPKWKYPGS [r1_496_TrROS] | 0.438 ± 0.22 | 1.81 ± 0.16 | 1.39 ± 0.35
